Measurements taken from patent US20210340225A1.

Target: recombinantly expressed RBD ([change] domain) of bat sarbecovirus WIV16 (bat SARS-like coronavirus WIV16)

Substance: 47D11 fully human IgG1 monoclonal antibody
- EC50 (read off the curve): 0.09 µg/mL
